Assay: soluble on expression in E. coli; label from the status in PepcDB or PDB records

Sequence	soluble on expression in E. coli
MEEIIKPVSKELLKAELTEDRRLRMTNKSNNQIYIITHQNAPNVMREIGRLREIAFRAAGGGTGLSMDIDEYDTMEHPYKQLIVWNPEAEEILGGYRYLLGTDVRFDEAGAPILATSHMFHFSDAFIKEYLPQTIELGRSFVTLEYQSTRAGSKGLFALDNLWDGLGALTVVMPNVKYFFGKVTMYPSYHRRGRDMILYFLKKHFNDREELVTPMEPLILETSDEELRTLFCKDTFKEDYKILNTEIRKLGYNIPPLVNAYMSLSPTMRMFGTAINYEFGDVEETGILIAVDEILEDKRIRHIQTFIESHPDALKMPCESEGVFTPKVVTPQEGCCH	not soluble
MEEKFDVVIIGAGPAGLFAAYELVEKSNLKVLIIEEGGDVDQRVCPMYELGYCIGCKPCHIMSGVGGAGGLSDGTVNLRPDIGGDLTELTNDENYSWQLVWEVDQILLRHEAPRNLYKGDPEQIKYWERKAAQAGVKFIPIIQRHIGSDNTPKVIKSIKNYLEKKGVKFLLWTKALEFNKGWVKVRRGKDTFTINARYIIVAPGRGGADWFHEVAKKIGLKARHGPIDVGVRVEVPAIVMEPITSINHDPKFHIYTDTYDDFVRTFCTNPYGFVVEERYDNYVGVNGHSMREKKSNNTNFALLTRIELTEPVEDTTAYGKSIAQLATTIGGGKPIIQRLGDLRRGRRSTWSRIRKSDVEPTLKHVTPGDIAMALPHRVVTNIIEGLERLDKVIPGVASDHTLLYAPEIKYYAMRVEVNELLETNIENVFAAGDGAGLSRDIVNAAATGIMAARGILVKEGLYNLKDFKKPGNWKEKIENLEPEYLEHHHHHH	not soluble
MEELIKKAKEYDIDINDLIIDAISRKDPKEAINLRIELAKKYITETEDYLKKGDAVQASEKAYKTAEEIVKALAEKFNIPEYQQALKEGRWYTYWLASAVNRLAKDLGDWVLNGWNSAYILHVWGFHEAKLSTADISEHLRKVKEMLDNVINIIGKLEHHHHHH	soluble
MEESSAAKIQLLKEFKFEKILKDDTKSKIITLYGKIRNEVALLLLEKTAFDLNTIKLDQLATFLQDTKLVENNDVFHWFLSTNFQDCSTLPSVKSTLIWPASETHVYKYSSQKKPMVCETPLMYLKVTKPFIETQRGPQIQWVENILTHKAEAERIVVEDPDPLNGFIVIPDLKWDRQTMSALNLMAIVHATDIASIRDLKYKHIPLLENIRNKVLTEVPKQFSVDKNQLKMFVHYLPSYYHLHVHILHVDHETGDGSAVGRAILLDDVIDRLRNSPDGLENVNITFNIGEQHFLFQPLTNMNA	soluble
MEEVINYRSDLFRLSDNLETLHIEEKFGIKCDLTCKIEENMTTFEFQFDLRDFKNNGFKQLTAEITIRPDPENPIFELIHRKLDILDIDEHRVNFSVENKNTQSLAETRAILELILTPIREKFSYREMFMPSQKTDAILMIGGEKLHVNKAFLSFHSDFFHELFSASSTESEIPEIPIRDVSAEDMGLLLSTIYPDLVFPTDKTAAKLLTLANRFQMRAVTAQVEHHLLWHSDIEIEKLILMANTFGMKDLLKECTCDGGNKTPGEVPISVQ	not soluble
MEFFGESWKKHLSGEFGKPYFIKLMGFVAEERKHYTVYPPPHQVFTWTQMCDIKDVKVVILGQNPYHGPNQAHGLCFSVQRPVPPPPSLENIYKELSTDIEDFVHPGHGDLSGWAKQGVLLLNAVLTVRAHQANSHKERGWEQFTDAVVSWLNQNSNGLVFLLWGSYAQKKGSAIDRKRHHVLQTAHPSPRSVYRGFFGCRHFSKTNELLQKSGKKPIDWKEL	soluble
MEFGVPRERSGGEIPERRVPLTPQGVRELVASGHRVYVERGAGEGAGFPDEAYEEAGARLVGREEAFGRPQVVLKVARPTLEEVGLMRKNAVLMAFLHLAVAESPLVEAMAQKGLTAIGYELVGEEGRRPVLKAMSEIAGRMAPQLAGRLLEAPQGPGILLSGLVGIPPADVVVLGAGVLGRAAARAFLGAGASVHLLDRALPPLEEAAREAPGAITALVTQDRLERYVAFADVLVGAVAVPGERTPLLLTRGLLARMRPGSVLLDFSIDQGGVSETSRPGVYQEMGVTHFCLPNVPALVPRTASHALTLTLLPYLLRIQEDPLALPGLRQGAYLLFGEKGGHLE	soluble
MEFYMKAFNKLFSLVVASVLVFSLAGCGDKEESKKFSANLNGTEIAITYVYKGDKVLKQSSETKIQFASIGATTKEDAAKTLEPLSAKYKNIAGVEEKLTYTDTYAQENVTIDMEKVDFKALQGISGINVSAEDAKKGITMAQMELVMKAAGFKEVK	not soluble
MEGCVSNIMICNLAYSGKLDELKERILADKSLATRTDQDSRTALHWACSAGHTEIVEFLLQLGVPVNDKDDAGWSPLHIAASAGRDEIVKALLVKGAHVNAVNQNGCTPLHYAASKNRHEIAVMLLEGGANPDAKDHYDATAMHRAAAKGNLKMVHILLFYKASTNIQDTEGNTPLHLACDEERVEEAKFLVTQGASIYIENKEEKTPLQVAKGGLGLILKRLAEGEEASM	soluble
MEGLARVFLIGGASKAVRYDEQTTIERVIHVVARGIGISQVAVAHFALRLVTGPSPQTAGSGDSLWLHPMLRITQLPHIYARHLPIGVCDEIKLEMRMRFMPQSVYELQATDSSAFVYLHEQVVDEFFSHVAWRSSVEVALEVAALKVCRDFAEHQHNKGADHHLEDLDIEACIQSLIPNVLHNPGFKHSHLKKTFTAYIKKFSATSPNESIIRSLALLLEVVKFDVELFKASLGAGWTKPVELVVGPHTGLSYRLNERCDSSRLLELRTIAEITIRKMENGSEKTLMQLNLSGAAKPVLITLSTEELSQSLAHLLDGYQMLYNQRDSVFKLKGIERCETLTMHEATIRPKTPNNIDSNIRLRRELITLKELIGGGQFGNVYKAVYHDLEKDERIAVAVKVCKTDAEPADTQLILQESSLMRNFRHSNIIQLIGVCVDQPMWLVLELAPKGELREYLQQEKDWLPLRILTLFCSQICDSLVYLHSTRFVHRDIAARNILVCSPQCVKLADFGLSRALDYDAVYTASRGKLPIKWLAPESVNYRQFSMASDVWMFGVCMWEIFSLGVKPWAGVTNSDVIMHIEQGSRPPCPEKCPTALYNFIRSKMWAIEPHKRPTVDQIYAIIEDVRQQIIQNIPPEQIIVGKPMTAAGVIVAEMSSLPGLTLYRTMEDQKRQAEEDAKWLEQEDDEDEDDQDIDQIPSTSHSSVENIRTSNGYLHHTPTSTRSLRFEDKTSRGLRRSVDGVCDAVTKLQNSFNNLTHNDDFLHSVKEVTSQLREMLIVASGMRDRVTTTTQRTDVDMTKTLIANDMKQMSRVMGKLQVNGHQATYNTLRRDVVRICGELAVNCTTLQLQLTQPPLENEFSSLLSNC	not soluble
MEGNFSNRVQDVIRLSREEALRLGHDYIGTEHLLLGLIREGEGIGAKILKNLKVDLFQLKQKIEENTHPKVPATQMGNVPLTKQAEKVLKITYLEAKICKSTIIGTEHLLLSILKGDDNIAAQILEQFGVTYDQVRDELMTITT	not soluble
MEHDERTHVPVELRAAGVVLLNERGDILLVQEKGIPGHPEKAGLWHIPSGAVEDGENPQDAAVREACEETGLRVRPVKFLGAYLGRFPDGVLILRHVWLAEPEPGQTLAPAFTDEIAEASFVSREDFAQLYAAGQIRMYQTKLFYADALREKGFPALPV	soluble
MEHITLFTDILPEEQERMRICFHAREMTFRNGETIMEYSSSMKKIGLILYGRAILYCCDTEGNQYLIDEFNKDAVFGEPFLLPADSQHYYVCAAEETKIMFIDYEHVIKRCDQACYHHSQMVSNLLQLTAIQSRQQNERIYMLSRSSTRKKLMAYLNALSTEKHSKDLKLPMSYTALAQYLSVDRSAMTRELKNLEEEGIIKKSGKQIHII	not soluble
MEHLLAIALGPVQEFIATARRTRDLYAGSRLLSEAAARAAKALAREVGAKNLIFPAPEDEAGLERLAGAGIPNVLLVRVPEGKDPRGLGEQALGAARDYLRERAEEVLGPRRDLLFWREALAQVEDLLEGYYAYLPLEGDYPRARERLMALLAARKNTRDFAPVSWGSPAYKSSLDGARESVLRLPEKEADHLRVRLGLRPGEYLAGPDLLKRWWKAGHGFLSTTHMAALPFWEGVRRAGLEAVLKEALEELGGLVGEEARAEVRHPVLRDTPFGEWDVRLLYESRLEEFPSLAEDPGLLEKARDRLRALWRRLFPKVRVPPGAYYALLHADGDRMGETLDGLPSPEAHRRFSNALALGFAAQVKDIVEAHGGGLVYSGGDDVLALLPLHTALMAARALADRFREAMAPFGREGRAPSLSVGLAVVHHLEPLQDALDLARRAEKWAKEGEPKRNALCVAYSPRSGAERLVRGRWDENPPLTRRLLRYADLLRAGEVPSRAAYELLALVREAGEALSGEALVAEALRILGRKEMKRAYREELEAWLRTGEDVRRLAEELILARPFAEALDQAGVPVESREVWDAH	soluble

From the DeepSol protein solubility set
